The values below come from PMC6590870.

This assay concerns the target Strep-HP1542 (bactofilin HP1542 of H. pylori reference strain 26695, N-terminal Strep-tagged version) (Helicobacter pylori strain 26695). As to the kind of experiment: cross-linking; glutaraldehyde dilutions 10% to 0.01% added to strep-tagged protein, 10 min at 23°C; SDS-PAGE and immunoblotting.

Where “and” joins values, the source holds several entries; their conditions need not be identical. Identical values can stand only once.

What is called stoichiometry N is the number of molecules, sites or subunits per partner or assembly. As to “Strep-HP1542 (bactofilin HP1542 of H. pylori reference strain 26695, N-terminal Strep-tagged version) (natural protein)”, the stoichiometry N was 2 and 3.
